Assay results: patent publication US20140357577A1, “HIV Membrane Fusion Inhibitors” (priority 2011, published 2014)
Starred links: 1 amine or outer side, 2 acyl side, 3 side chain; linkers in the order of their positions; H or OH if unused. Positions of bridges follow the written chain, without caps; N, C: chain ends. Non-standard residues stand in square brackets, D forms with d. B21 = 2,7-dimethylnaphtyl, c1cc2ccc(C[*:2])cc2cc1C[*:1]; pXylylene = c1cc(C[*:2])ccc1C[*:1]; hCys = N[C@@H](CCS)C(=O)O; B1 = not defined here

B1: peptide 74 (peptide)
peptide: Ac-ECYAACIEALIRAAQEQQEKNEAALR-NH2
modifications: linker 2-6 via pXylylene
SMILES: CC[C@H](C)[C@H](NC(=O)[C@H](CC(C)C)NC(=O)[C@H](C)NC(=O)[C@H](CCC(=O)O)NC(=O)[C@@H](NC(=O)[C@@H]1CSCc2ccc(cc2)CSC[C@H](NC(=O)[C@H](CCC(=O)O)NC(C)=O)C(=O)N[C@@H](Cc2ccc(O)cc2)C(=O)N[C@@H](C)C(=O)N[C@@H](C)C(=O)N1)[C@@H](C)CC)C(=O)N[C@@H](CCCNC(=N)N)C(=O)N[C@@H](C)C(=O)N[C@@H](C)C(=O)N[C@@H](CCC(N)=O)C(=O)N[C@@H](CCC(=O)O)C(=O)N[C@@H](CCC(N)=O)C(=O)N[C@@H](CCC(N)=O)C(=O)N[C@@H](CCC(=O)O)C(=O)N[C@@H](CCCCN)C(=O)N[C@@H](CC(N)=O)C(=O)N[C@@H](CCC(=O)O)C(=O)N[C@@H](C)C(=O)N[C@@H](C)C(=O)N[C@@H](CC(C)C)C(=O)N[C@@H](CCCNC(=N)N)C(N)=O
B2: peptide 79 (peptide)
peptide: Ac-A[hCys]YAA[hCys]IEALIRKAQEQQEKNEAALR-NH2
modifications: linker 2-6 via B21
SMILES: CC[C@H](C)[C@H](NC(=O)[C@@H]1CCSCc2ccc3ccc(cc3c2)CSCC[C@H](NC(=O)[C@H](C)NC(C)=O)C(=O)N[C@@H](Cc2ccc(O)cc2)C(=O)N[C@@H](C)C(=O)N[C@@H](C)C(=O)N1)C(=O)N[C@@H](CCC(=O)O)C(=O)N[C@@H](C)C(=O)N[C@@H](CC(C)C)C(=O)N[C@H](C(=O)N[C@@H](CCCNC(=N)N)C(=O)N[C@@H](CCCCN)C(=O)N[C@@H](C)C(=O)N[C@@H](CCC(N)=O)C(=O)N[C@@H](CCC(=O)O)C(=O)N[C@@H](CCC(N)=O)C(=O)N[C@@H](CCC(N)=O)C(=O)N[C@@H](CCC(=O)O)C(=O)N[C@@H](CCCCN)C(=O)N[C@@H](CC(N)=O)C(=O)N[C@@H](CCC(=O)O)C(=O)N[C@@H](C)C(=O)N[C@@H](C)C(=O)N[C@@H](CC(C)C)C(=O)N[C@@H](CCCNC(=N)N)C(N)=O)[C@@H](C)CC
B3: peptide 80 (peptide)
peptide: Ac-A[hCys]YAA[hCys]IEALIRKAQEQQEKNEAALR-NH2
modifications: linker 2-6 via B21
SMILES: CC[C@H](C)[C@H](NC(=O)[C@@H]1CCSCc2ccc3ccc(cc3c2)CSCC[C@H](NC(=O)[C@H](C)NC(C)=O)C(=O)N[C@@H](Cc2ccc(O)cc2)C(=O)N[C@@H](C)C(=O)N[C@@H](C)C(=O)N1)C(=O)N[C@@H](CCC(=O)O)C(=O)N[C@@H](C)C(=O)N[C@@H](CC(C)C)C(=O)N[C@H](C(=O)N[C@@H](CCCNC(=N)N)C(=O)N[C@@H](CCCCN)C(=O)N[C@@H](C)C(=O)N[C@@H](CCC(N)=O)C(=O)N[C@@H](CCC(=O)O)C(=O)N[C@@H](CCC(N)=O)C(=O)N[C@@H](CCC(N)=O)C(=O)N[C@@H](CCC(=O)O)C(=O)N[C@@H](CCCCN)C(=O)N[C@@H](CC(N)=O)C(=O)N[C@@H](CCC(=O)O)C(=O)N[C@@H](C)C(=O)N[C@@H](C)C(=O)N[C@@H](CC(C)C)C(=O)N[C@@H](CCCNC(=N)N)C(N)=O)[C@@H](C)CC
B4: peptide 78 (peptide)
peptide: Ac-A[hCys]YAA[hCys]IEALIRAAQEQQEKNEAALR-NH2
modifications: linker 2-6 via B21
SMILES: CC[C@H](C)[C@H](NC(=O)[C@H](CC(C)C)NC(=O)[C@H](C)NC(=O)[C@H](CCC(=O)O)NC(=O)[C@@H](NC(=O)[C@@H]1CCSCc2ccc3ccc(cc3c2)CSCC[C@H](NC(=O)[C@H](C)NC(C)=O)C(=O)N[C@@H](Cc2ccc(O)cc2)C(=O)N[C@@H](C)C(=O)N[C@@H](C)C(=O)N1)[C@@H](C)CC)C(=O)N[C@@H](CCCNC(=N)N)C(=O)N[C@@H](C)C(=O)N[C@@H](C)C(=O)N[C@@H](CCC(N)=O)C(=O)N[C@@H](CCC(=O)O)C(=O)N[C@@H](CCC(N)=O)C(=O)N[C@@H](CCC(N)=O)C(=O)N[C@@H](CCC(=O)O)C(=O)N[C@@H](CCCCN)C(=O)N[C@@H](CC(N)=O)C(=O)N[C@@H](CCC(=O)O)C(=O)N[C@@H](C)C(=O)N[C@@H](C)C(=O)N[C@@H](CC(C)C)C(=O)N[C@@H](CCCNC(=N)N)C(N)=O
B5: peptide 73 (peptide)
peptide: Ac-ACYAACIEALIRAAQEQQEKNEALLR-NH2
modifications: linker 2-6 via pXylylene
SMILES: CC[C@H](C)[C@H](NC(=O)[C@H](CC(C)C)NC(=O)[C@H](C)NC(=O)[C@H](CCC(=O)O)NC(=O)[C@@H](NC(=O)[C@@H]1CSCc2ccc(cc2)CSC[C@H](NC(=O)[C@H](C)NC(C)=O)C(=O)N[C@@H](Cc2ccc(O)cc2)C(=O)N[C@@H](C)C(=O)N[C@@H](C)C(=O)N1)[C@@H](C)CC)C(=O)N[C@@H](CCCNC(=N)N)C(=O)N[C@@H](C)C(=O)N[C@@H](C)C(=O)N[C@@H](CCC(N)=O)C(=O)N[C@@H](CCC(=O)O)C(=O)N[C@@H](CCC(N)=O)C(=O)N[C@@H](CCC(N)=O)C(=O)N[C@@H](CCC(=O)O)C(=O)N[C@@H](CCCCN)C(=O)N[C@@H](CC(N)=O)C(=O)N[C@@H](CCC(=O)O)C(=O)N[C@@H](C)C(=O)N[C@@H](CC(C)C)C(=O)N[C@@H](CC(C)C)C(=O)N[C@@H](CCCNC(=N)N)C(N)=O
B6: peptide 72 (peptide)
peptide: Ac-ACYAACIEELIRKAQEQQEKNEAALR-NH2
modifications: linker 2-6 via pXylylene
SMILES: CC[C@H](C)[C@H](NC(=O)[C@@H]1CSCc2ccc(cc2)CSC[C@H](NC(=O)[C@H](C)NC(C)=O)C(=O)N[C@@H](Cc2ccc(O)cc2)C(=O)N[C@@H](C)C(=O)N[C@@H](C)C(=O)N1)C(=O)N[C@@H](CCC(=O)O)C(=O)N[C@@H](CCC(=O)O)C(=O)N[C@@H](CC(C)C)C(=O)N[C@H](C(=O)N[C@@H](CCCNC(=N)N)C(=O)N[C@@H](CCCCN)C(=O)N[C@@H](C)C(=O)N[C@@H](CCC(N)=O)C(=O)N[C@@H](CCC(=O)O)C(=O)N[C@@H](CCC(N)=O)C(=O)N[C@@H](CCC(N)=O)C(=O)N[C@@H](CCC(=O)O)C(=O)N[C@@H](CCCCN)C(=O)N[C@@H](CC(N)=O)C(=O)N[C@@H](CCC(=O)O)C(=O)N[C@@H](C)C(=O)N[C@@H](C)C(=O)N[C@@H](CC(C)C)C(=O)N[C@@H](CCCNC(=N)N)C(N)=O)[C@@H](C)CC

The binders below were run against gp41 of HIV-1 strain HXB2D with mutation V38A (HIV-1 strain HXB2D, UniProt P04578) (assay: cell-based or functional assay).

Binder	fold change in EC50, HIV-HXB2D V38A mutant
B1	33 fold
B2	27 fold
B3	40 fold
Ac-[dA]CYAACIEALIRAAQEQQEKNEAAL[dR]-NH2 (linker 2-6 via 2,7‑dimethylnaphthyl) [peptide 76]	48 fold
B4	61 fold
Ac-A[hCys]YAA[hCys]IEALIRAAQEQQEKNEAALR-NH2 (linker 2-6 via B1; reading uncertain) [peptide 77]	39 fold
B5	60 fold
B6	10 fold
Ac-[dA]CYAACIEALIRAAQEQQEKNEAAL[dR]-NH2 (linker 2-6 via 2,7‑dimethylnaphthyl) [peptide 75]	21 fold
